Experimental findings from US20260250410A1 (SICHUAN HUIYU PHARMACEUTICAL, published 2026) are described below.

The target in one assay is T1, MsCDCP1 (mouse, UniProt Q5U462 30-666).
T1 construct: extracellular domain; also called mouse CDCP1; not shown: Fc or his tag
T1 sequence (looked up): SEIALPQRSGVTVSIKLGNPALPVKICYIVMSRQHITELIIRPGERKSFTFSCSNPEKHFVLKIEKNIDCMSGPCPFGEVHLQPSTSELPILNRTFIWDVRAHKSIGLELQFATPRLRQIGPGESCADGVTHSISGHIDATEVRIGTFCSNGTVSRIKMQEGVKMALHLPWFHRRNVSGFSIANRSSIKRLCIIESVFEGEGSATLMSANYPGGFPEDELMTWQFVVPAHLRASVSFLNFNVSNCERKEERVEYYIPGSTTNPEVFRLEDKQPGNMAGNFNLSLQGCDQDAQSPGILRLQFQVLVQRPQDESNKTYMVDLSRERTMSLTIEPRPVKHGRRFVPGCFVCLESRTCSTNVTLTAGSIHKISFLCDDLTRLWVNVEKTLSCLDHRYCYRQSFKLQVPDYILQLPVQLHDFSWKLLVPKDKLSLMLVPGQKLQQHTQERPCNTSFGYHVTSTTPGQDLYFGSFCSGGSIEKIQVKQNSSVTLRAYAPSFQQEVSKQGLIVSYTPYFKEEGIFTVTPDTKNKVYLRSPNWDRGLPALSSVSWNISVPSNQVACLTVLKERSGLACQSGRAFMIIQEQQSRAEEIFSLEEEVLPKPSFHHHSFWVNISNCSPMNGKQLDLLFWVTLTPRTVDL
Put plainly: SPR (Caterra or Biacore), antigen immobilized.

For the next assay, the target named is T2, HuCDCP1-B (human, UniProt Q9H5V8 343-667).
T2 construct: range 343-667; expressed in HEK-293T, purified by Fc/his tag; also called human CDCP1-B; membrane-proximal region of CDCP1; not shown: Fc or his tag
T2 sequence (looked up): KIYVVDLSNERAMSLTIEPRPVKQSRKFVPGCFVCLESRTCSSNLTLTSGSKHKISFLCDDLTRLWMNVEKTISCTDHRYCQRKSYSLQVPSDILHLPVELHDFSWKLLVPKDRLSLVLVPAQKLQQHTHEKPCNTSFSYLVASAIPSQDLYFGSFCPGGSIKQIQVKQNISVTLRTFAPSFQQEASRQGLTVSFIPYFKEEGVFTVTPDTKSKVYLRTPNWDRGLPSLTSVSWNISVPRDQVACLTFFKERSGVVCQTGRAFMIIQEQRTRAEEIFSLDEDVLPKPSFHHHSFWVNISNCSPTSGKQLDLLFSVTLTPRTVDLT
Nature of the assay: SPR (Caterra or Biacore), antigen immobilized.

B1: 3C11 (antibody, V domains shown)
VH: EVQLQQSGTVLARPGASVKMSCKASGYNFISYWLHWIKQRPGQGLEWIGGIYPGNTDTTYNQKFKGKAKVTAVTSATTAYMELSSLTNEDSAVYYCIRYDYDRGMDYWGQGTTVTVSS
VL: DIQMTQSPSSFSVSLGDRVTITCRASEDIYYRLAWYQQKPGNAPRLLISGATALETGVPSRFSGSGSGKDYTLSITSLQTEDVATYYCQHYWNIPWTFGGGTKLEIK
notes: murine hybridoma mAb
With B1, the binding result in the assay with MsCDCP1 was “no binding (tested: 150 nM highest concentration)”. For the same molecule, a half-maximal effect with HuCDCP1-B (EC50) was put at 3.78 nM.

B2: 12E6 (antibody, V domains shown)
VH: EVQLKESGPGILQPSQTLSLTCSFSGFSLSTSGMGVGWIRQPSGKGLEWLAHIWWDDVKLYNPALKSRLTISKETSNNQVFLKIASVDAADTATYYCARIDHGYGSNYWDFDVWGAGTTVTVSS
VL: DIVMTQAAPSVPVTPGGSVSISCRSTKSLLHSDGKTYLYWFLQRPGQSPQLLIYRMSNLASGVPDRFSGSGSGTAFTLRISRVEAEDVGVYYCMQHLEYPFTFGSGTKLEIK
notes: murine hybridoma mAb
As for B2, the figures for the EC50 with MsCDCP1 and with HuCDCP1-B were 4010 nM and 1.62 nM, respectively.

B3: 14A10C5 (antibody, V domains shown)
VH: EVKLVESGPGILQPSQTLSLTCSFSGFSLSTSGMGVSWIRQPSGKGLEWLAHIYWDDEKRYNPSLKSRLTISKDTSSNQVFLKITSVDTADTATYYCAREGSANWEAMDYWGQGTTVTVSS
VL: DIVMTQAALSLPVSLGDQASISCRSSQNIVYTNGITYLEWYLQKPGQSPKLLIYKVSNRFSGVPDRFSGSGSATDFTLKISRVEAEDLGVYYCFQSSHVPWTFGGGTKLEIK
notes: murine hybridoma mAb; also called 14A10CS
On to B3, for which, in the assay with MsCDCP1, the binding result is listed as “no binding (tested: 150 nM highest concentration)”.

B4: 10D2 (antibody, V domains shown)
VH: EVQLQQSGPELKKPGETVKISCKASGYTFTDYSMHWVKQAPGKGLKWMGWINTETGQPTYADDFKGRFAFSLETSASSAYLQINNLKNEDTATYFCTRTFYYDYVGDYWGQGTTVTVSS
VL: DIVMTQSHKFMSTSVGDRVSITCKASQDVSTAVAWYRQKPGQSPKLLIYWASTRHTGVPDRLTGSGSGTDFALTINSVQAEDLALYYCQQHSSTPYTFGGGTKLEIK
notes: murine hybridoma mAb
Consider B4, for which the binding result with MsCDCP1 is “no binding (tested: 150 nM highest concentration)”.
